This note sets out measurements from article doi:10.1101/2022.03.21.485092.

In this data set the target is hnRNP A1 spin-labelled at 231 (Homo sapiens, UniProt P09651-2 1-320, M1G;C43S;C175A;S231C). Description: CW EPR.

On to CCAGCAUUAUGAAAAUGA (ssRNA) [RNAga (3' AG motif mutated)], for which the binding result is reported as “binds”.
